For 167 variants, self-cleavage results are on record in the RNAGym collection of RNA variant scans (doi:10.7554/elife.90254).

First the molecules themselves.
B1: OR4K15 (parent)
chain: GUUAACGGUCAUAGGCCAUGGAAACUAGGAGCACCAUUUCGCUGCCAGUGAAGAAAUGAACAAAGAAAAUCUGGGCCAGGCAGGCAUCAAAAGAAAUAGUCUUGCGCUCAACCAGAAAGUCUGUAAUCAUUUUAAGGGUA

In this data set the parent is B1. As to the kind of experiment: self-cleavage, relative activity (ratio to wild type); higher = more cleavage; in vitro, sequencing; the parent is a self-cleaving ribozyme.
Turning to A4G G83A, the self-cleavage is 1.44.
On to A66G U103C, for which the self-cleavage is 1.06.
Take A96G G106C: the self-cleavage is 0.02.
The figure for U39A U97C is 1.85; for U3C U9C it is 1.36; for A18G A33U it is 1.92.
Then U87C A91U, with 1.35; and A63G U70C, with 1.08; and U38A G48A, with 1.31.
Take A24U A67U: the self-cleavage is 1.89.
Turning to A78U U120C, the self-cleavage was found to be 0.12.
Consider A23U A94U, for which the self-cleavage amounted to 0.3.
Then C34U C76U, with 0.12.
In the case of U70A C121U, the self-cleavage is 2.35.
The figure for A33G U37C is 0.74; for U43C G99C it is 0.26.
Turning to A64U U103A, the self-cleavage came to 1.08.
On to A129G U132C, for which the self-cleavage stood at 1.16.
On to A55U G58U, for which the self-cleavage is 1.98.
Take A89U U108A: the self-cleavage stood at 0.02.
With A86G U127C, the self-cleavage was 1.22.
For the variant A5U A94G, the self-cleavage turned out to be 1.51.
Take U37C A140U: the self-cleavage was determined as 1.87.
The figure for G21U U72A is 0.4; for A78C U127C it is 0.18; for A95G G104A it is 0.08.
G79A U130C: the self-cleavage is 0.15.
Consider A23U A51G, for which the self-cleavage stood at 1.24.
Then U103C U124C, with 0.96.
On to G41A A54U, for which the self-cleavage stood at 1.03.
Turning to A64G G137A, the self-cleavage stood at 0.96.
The figure for A59G G106A is 0.02; for A23G U26C it is 1.42.
With A33G A56G, the self-cleavage was 0.77.
As to A64G A94G, the self-cleavage turned out to be 1.74.
In the case of A64G A94U, the self-cleavage was determined as 1.61.
On to A5U C6U, for which the self-cleavage is 1.27.
With A36U U72G, the self-cleavage was found to be 0.29.
For A24C, the self-cleavage stood at 1.29.
In the case of U49C A78C, the self-cleavage is 0.43.
For G79A A91C, the self-cleavage worked out at 0.09.
Take A27C A91G: the self-cleavage was determined as 0.64.
On to A47C A90G, for which the self-cleavage is 1.61.
A62G U120A: the self-cleavage was 1.1.
Take A110U A126G: the self-cleavage was 1.05.
Then U2C A98G, with 0.57; and C46U U100C, with 2.37.
Regarding U72C A126G, the self-cleavage is 0.12.
The figure for U72C A126U is 0.4; for A64G U124C it is 1.57; for A69G C109A it is 0.37.
Take A36G A126U: the self-cleavage came out at 1.76.
For the variant A60G A110U, the self-cleavage amounted to 1.3.
As for A11C A60G, the self-cleavage amounted to 1.07.
Consider U57C A90G, for which the self-cleavage is 0.97.
On to U124C U139C, for which the self-cleavage worked out at 0.91.
The figure for A30U U131C is 1.07; for U3A U70A it is 1.46.
As to G41A G136A, the self-cleavage stood at 1.2.
Take A5G A60U: the self-cleavage was found to be 1.08.
In the case of U39A U49C, the self-cleavage was determined as 1.
Turning to A91U U122C, the self-cleavage stood at 1.4.
Then C16U U38C, with 0.76; and A63C G83U, with 0.83; and A5G U87A, with 0.62.
Turning to A47G U120C, the self-cleavage turned out to be 0.48.
Then G44A A91G, with 0.42; and A67G U97C, with 1.74.
For A62G A63U, the self-cleavage was found to be 1.61.
As for A51G A78U, the self-cleavage was determined as 0.35.
For A94G A98G, the self-cleavage is 0.27.
For U2C A125G, the self-cleavage was 0.55.
On to A78G A89C, for which the self-cleavage is 0.43.
For the variant A82U A89U, the self-cleavage is 0.32.
The figure for A36C U38C is 1.43.
Regarding A5G U120A, the self-cleavage stood at 1.77.
For the variant G14A U19A, the self-cleavage worked out at 0.91.
On to A94G U124C, for which the self-cleavage amounted to 0.21.
For U12A A94G, the self-cleavage was determined as 1.12.
As to U102C A110G, the self-cleavage amounted to 0.15.
Regarding U87C G115U, the self-cleavage came to 0.29.
For the variant U38G A116G, the self-cleavage is 1.67.
Then A89G A114G, with 0.36; and U39A A54U, with 1.18; and A68G G136C, with 1.93.
Turning to A60G U130C, the self-cleavage came to 1.07.
For the variant A66U A69G, the self-cleavage came out at 1.06.
Then A82G U127C, with 0.22; and A24G A91U, with 1.61; and A90G A95G, with 2.02.
Then A110G U132C, with 0.07.
As for A18U U87A, the self-cleavage was 1.04.
In the case of A64C C105U, the self-cleavage came out at 0.17.
As for A27U A62G, the self-cleavage was 1.61.
Take U12C A126U: the self-cleavage amounted to 0.52.
Then G53U U72A, with 0.19; and U132C U133C, with 1.1.
Turning to A52C A82G, the self-cleavage stood at 0.55.
Consider A47U A52U, for which the self-cleavage was found to be 1.2.
On to C71U C105U, for which the self-cleavage came to 0.07.
For A18U U38C, the self-cleavage came to 1.28.
With A52G A66G, the self-cleavage is 1.75.
U19C A47G: the self-cleavage is 0.41.
For A5G A129G, the self-cleavage is 0.87.
The figure for A22G C25G is 1.24; for A13G A140C it is 1.31; for A91U U127C it is 0.87.
For the variant A55U U100A, the self-cleavage amounted to 0.82.
Take A47U G75A: the self-cleavage was 0.14.
As for U103A A134G, the self-cleavage was determined as 0.27.
For the variant U97A A111G, the self-cleavage amounted to 0.03.
Then A117C, with 0.55; and A30U A135U, with 1.23; and U19A U103C, with 0.75.
For A5G A114U, the self-cleavage worked out at 0.04.
The figure for U39C U102C is 2.19; for A64G A96C it is 0.76; for A89U A90G it is 1.48.
Take U19C A62U: the self-cleavage was 1.48.
A86G A95G: the self-cleavage was 1.72.
With C105A U122A, the self-cleavage turned out to be 0.
On to A86C A94U, for which the self-cleavage was found to be 1.15.
For A117G A140G, the self-cleavage turned out to be 1.68.
Turning to A11G A13G, the self-cleavage worked out at 1.26.
Then U97C G123A, with 1.14; and C16U U120C, with 1.42.
Take A68G A140G: the self-cleavage amounted to 1.91.
Take C45A A114G: the self-cleavage stood at 0.06.
Then G15U U72G, with 0.36; and G84A U131C, with 2.37; and A13G C109A, with 0.6.
In the case of A90G U127A, the self-cleavage came to 2.66.
On to U37C G136A, for which the self-cleavage was 2.23.
As to A86G C105A, the self-cleavage was found to be 0.02.
A24G G41A: the self-cleavage stood at 1.45.
U26C: the self-cleavage is 1.26.
Turning to A36G A52G, the self-cleavage came to 1.79.
Then A22G U108C, with 0.03; and A60U U103C, with 0.16.
A82U A110G: the self-cleavage came out at 0.04.
Turning to U72A A114U, the self-cleavage was determined as 1.94.
For C85U U108C, the self-cleavage is 0.04.
Then U43G A69G, with 2.1.
For A78U U131A, the self-cleavage amounted to 0.18.
As for A24U A95G, the self-cleavage is 1.95.
Consider U19G A78U, for which the self-cleavage is 0.89.
Consider A63G A90G, for which the self-cleavage turned out to be 1.6.
For the variant U43C C113U, the self-cleavage is 0.04.
The figure for C76G C121U is 0.08; for A69G A89U it is 1.53.
Consider U19C U102A, for which the self-cleavage stood at 1.29.
Turning to G14U A54G, the self-cleavage was found to be 1.65.
The figure for A47U U127C is 0.59; for A51U A55G it is 0.55; for U70C A129G it is 0.33.
In the case of A91G A110G, the self-cleavage came out at 0.11.
With A89U U102C, the self-cleavage amounted to 1.9.
Then C46U U131C, with 2.02; and A33C A118C, with 0.99; and A64U A90G, with 0.32.
With G7A U9C, the self-cleavage came out at 2.32.
As to G74C A89G, the self-cleavage turned out to be 0.07.
Turning to G74U U132A, the self-cleavage turned out to be 0.3.
Take G29A A67G: the self-cleavage was 1.29.
As for A114C U131C, the self-cleavage turned out to be 0.02.
Consider C113U A117G, for which the self-cleavage came to 0.08.
With A67G A129U, the self-cleavage came out at 1.03.
